Data published in article PMC8695127 (2021).

What was measured:
[1] = molecular target: T1, SARS-CoV-2 spike (S) protein peptide on HLA-DPA1*01:03 / HLA-DPB1*04:01 (human); test: multimer staining
T1 peptide: TFEYVSQPFLMDLE

[2] = molecular target: T2, SARS-CoV-2 spike (S) protein peptide on HLA-DPA1*01:03 / HLA-DPB1*04:01 (human); test: activation reporter or marker
T2 peptide: CTFEYVSQPFLMDLE

[3] = molecular target: T3, SARS-CoV-2 spike (S) protein peptide on HLA-DPA1*01:03 / HLA-DPB1*04:01 (human); test: multimer staining
T3 peptide: TFEYVSQPFLMDLE

B1: TCR6.3 (TCR)
alpha TRAV35 TRAJ42 CDR3: CAGMNYGGSQGNLIF
beta TRBV6-3 TRBJ1-2 CDR3: CASSYRGAYGYTF
[1]
  binding result: recognises
[2]
  binding result: recognises

B2: TCR4.1 (TCR)
alpha TRAV35 TRAJ42 CDR3: CAGMNYGGSQGNLIF
beta TRBV4-1 TRBJ1-2 CDR3: CASSQGVGYTF
[1]
  binding result: recognises
[2]
  binding result: recognises
[3]
  binding result: recognises
